{"source": "patent US20100167997A1", "about": "“METHOD FOR STIMULATION COLLAGEN SYNTHESIS AND/OR KGF EXPRESSION” (ATYR PHARMA, INC., priority 2005, published 2010)", "molecules": {"B1": {"name": "SEQ ID NO: 27: fragment consisting of amino acids 1-192 of the AIMP1 (protein, listed as Homo sapiens)", "chain": "MANNDAVLKRLEQKGAEADQIIEYLKQQVSLLKEKAILQATLREEKKLRVENAKLKKEIEELKQELIQAEIQNGVKQIAFPSGTPLHANSMVSENVIQSTAVTTVSSGTKEQIKGGTGDEKKAKEKIEKKGEKKEKKQQSIAGSADSKPIDVSRLDLRIGCIITARKHPDADSLYVEEVDVGEIAPRTVVSG", "modifications": "PEPTIDE (1)..(192) AIMP1-(1-192)", "notes": "fragment consisting of amino acids 1-192 of the AIMP1"}, "B2": {"name": "SEQ ID NO: 28: fragment consisting of amino acids 6-192 of the AIMP1 (protein, listed as Homo sapiens)", "chain": "AVLKRLEQKGAEADQIIEYLKQQVSLLKEKAILQATLREEKKLRVENAKLKKEIEELKQELIQAEIQNGVKQIAFPSGTPLHANSMVSENVIQSTAVTTVSSGTKEQIKGGTGDEKKAKEKIEKKGEKKEKKQQSIAGSADSKPIDVSRLDLRIGCIITARKHPDADSLYVEEVDVGEIAPRTVVSG", "modifications": "PEPTIDE (1)..(187) AIMP1-(6-192)", "notes": "fragment consisting of amino acids 6-192 of the AIMP1"}, "B3": {"name": "C-terminal fragment: C-terminal fragment of AIMP1, amino acids 148-312 (protein, listed as Homo sapiens)", "chain": "KPIDVSRLDLRIGCIITARKHPDADSLYVEEVDVGEIAPRTVVSGLVNHVPLEQMQNRMVILLCNLKPAKMRGVLSQAMVMCASSPEKIEILAPPNGSVPGDRITFDAFPGEPDKELNPKKKIWEQIQPDLHTNDECVATYKGVPFEVKGKGVCRAQTMSNSGIK", "modifications": "PEPTIDE (1)..(165) AIMP1-(148-312)"}, "B4": {"name": "SEQ ID NO: 2: N-terminal fragment of AIMP1, amino acids 1-147 (protein, listed as Homo sapiens)", "chain": "MANNDAVLKRLEQKGAEADQIIEYLKQQVSLLKEKAILQATLREEKKLRVENAKLKKEIEELKQELIQAEIQNGVKQIAFPSGTPLHANSMVSENVIQSTAVTTVSSGTKEQIKGGTGDEKKAKEKIEKKGEKKEKKQQSIAGSADS", "modifications": "PEPTIDE (1)..(147) AIMP1-(1-147)"}}, "key": {"KGF [1]": {"test_system": "KGF", "experiment": "RT-PCR analysis of KGF expression in foreskin fibroblast cells", "format": "cell-based", "conditions": "for KGF synthesis (RT-PCR), deletion fragments, compared with C-terminal fragment SEQ ID NO: 15: 100 nM for 2 hours and 6 hours, FIG. 6; for synthesis of KGF (RT-PCR), AIMP1 fragments: 100 nM, 0, 1, 2, 4 and 6 hours, FIG. 5", "method": "From foreskin fibroblast cells treated with 100 nM of the AIMP1 for 2 hours, the total RNA was extracted in the same manner as described in Example <1-2>. Then, the extract was amplified by RT-PCR using KGF-specific primers (SEQ ID NO: 8 and SEQ ID NO: 9). The control groups were amplified using cyclin D-specific primers (SEQ ID NO: 10 and SEQ ID NO: 11) and GADPH-specific primers (SEQ ID NO: 6 and SEQ ID NO: 7), respectively. The PCR reaction consisted of: predenaturation of the template DNA at 95° C. for 5 min, followed by 25 cycles of 1 min at 95° C., 1 min at 52° C. and 1 min at 72° C., and then, a final extension for 5 min at 72° C.\n(§1) Foreskin fibroblast cells (5×10^4 cells/well) were cultured in 10% serum-containing DMEM medium on a 6-well plate about 12 hours, and then, cultured in serum-free medium for about 3 hours. Then, the cultured cells were treated with 100 nM of the N-terminal and C-terminal fragments of the AIMP1 prepared in Reference Example 1, at various time intervals of 0, 1, 2, 4, and 6 hours. Then, RT-PCR was performed in the same manner as in Example <1-2> using each of collagen-specific primers (SEQ ID NO: 4 and SEQ ID NO: 5), KGF-specific primers (SEQ ID NO: 8 and SEQ ID NO: 9) and GADPH-specific primers (SEQ ID NO: 6 and SEQ ID NO: 7).\n(§2) Foreskin fibroblast cells (5×10^4 cells/well) were cultured in 10% serum-containing DMEM medium on a 6-well plate for 12 hours and then cultured in serum-free medium for about 3 hours. Next, the cultured cells were treated with each of the N-terminal fragments (SEQ ID NOS: 12, 13 and 14) and C-terminal fragment (SEQ ID NO: 15) of AIMP1 prepared in Reference Example 2 at an concentration of 100 nM for 2 hours and 6 hours, respectively. The treated cells were subjected to RT-PCR using collagen-specific primers (SEQ ID NOS: 4 and 5), KGF-specific primers (SEQ ID NOS: 8 and 9) and GADPH-specific primers (SEQ ID NOS: 6 and 7) in the same manner as in Example <1-2>."}, "collagen [2]": {"test_system": "collagen", "experiment": "RT-PCR analysis of collagen transcript in foreskin fibroblast cells", "format": "cell-based", "conditions": "for collagen synthesis (RT-PCR), deletion fragments, compared with C-terminal fragment SEQ ID NO: 15: 100 nM for 2 hours and 6 hours, FIG. 6; for synthesis of collagen (RT-PCR), AIMP1 fragments: 100 nM, 0, 1, 2, 4 and 6 hours, FIG. 5", "method": "(§3) In order to measure the collagen transcript RNA induced by the AIMP1, foreskin fibroblast cells (5×10^4 cells/well; obtained from MTT; accession number: MC1232) were cultured in 10% serum-containing DMEM medium on a 6-well plate for 12 hours and then cultured in serum-free medium for about 3 hours. Next, the cultured cells were treated with the AIMP1 (SEQ ID NO: 1) at varying AIMP1 concentrations of 0, 20, 50, 100 and 200 nM for 6 hours (RT-PCR) or 12 hours (Western blot).\nThe cells treated with the AIMP1 at varying concentrations in Example <1-1> were collected and dissolved in TRIzol (invitrogen). 10% by weight of chloroform was added to the cell lysate, and mixed well. The mixture was centrifuged at 12,000 g for 15 minutes and the supernatant was collected. Ethanol was added to the collected supernatant to a final concentration of 70%. Then, the supernant was centrifuged at 26,000 g for 5 minutes and the precipitant was collected. The precipitant was dried and dissolved in sterilized distilled water, and the total RNA was extracted. 3 μg of the total RNA was used to prepare cDNA. Then, the cDNA was amplified by PCR using collagen-specific primers (SEQ ID NO: 4 and SEQ ID NO: 5). At this time, for use as a control group, the cDNA was subjected to PCR using GADPH-specific primers (SEQ ID NO: 6 and SEQ ID NO: 7). The PCR reaction consisted of: pre-denaturation of the template DNA at 95° C. for 5 min, followed by 25 cycles of 1 min at 95° C., 1 min at 52° C. and 1 min at 72° C., and then a final extension for 5 min at 72° C.\n(§4) Foreskin fibroblast cells (5×10^4 cells/well) were cultured in 10% serum-containing DMEM medium on a 6-well plate for 12 hours, and then, cultured in serum-free medium for about 3 hours. Next, the cultured cells were treated with 100 nM of the AIMP1 at various time intervals (0, 2, 4, 6, 12 and 24 hours).\nas §1, §2"}, "collagen [3]": {"test_system": "collagen", "experiment": "Western blot analysis of collagen (anti-collagen I antibody) in foreskin fibroblast cells", "format": "cell-based", "conditions": "200 nM for 12 hours, FIG. 7", "method": "as §3\nThe cells treated with the AIMP1 at varying AIMP1 concentrations in Example <1-1> were collected and lysed in a cell lysis buffer (50 mM HEPES, pH 7.5, 150 mM NaCl, 10% glycerol, 5 mM EGTA, 1 mM sodium orthovanadate, 10 mM NaF, 12 mM b-glycerophosphate, 1 mM DTT, 1 mM PMSF, […] aprotinin, and 1% NP40). Lysed cells were centrifuged at 26,000 g for 15 minutes and the cell extract was isolated. 30 μg of the cell extract was separated by 8% SDS-PAGE and immunoblotted with an anti-collagen I antibody (Abcam) according to any conventional method known in the art. As a control group, an anti-tubulin antibody (Sigma) was used.\nas §4\nForeskin fibroblast cells (5×10^5 cells/well) were cultured in 10% serum-containing DMEM medium on a 6-well plate for 48 hours and then cultured in serum-free medium for about 3 hours. Next, the cultured cells were treated with each of the AIMP1 (SEQ ID NO: 1) and the AIMP1 N-terminal fragments (SEQ ID NOS: 2 and 12) at a concentration of 200 nM for 12 hours. As a control group, cells without treatment were used.\nThe cells treated with each of the AIMP1 and its N-terminal fragments and the control cells were collected at the indicated time and subjected to Western blot analysis in the same manner as in Example <1-3>."}, "KGF [4]": {"test_system": "KGF", "experiment": "Activity to stimulate KGF expression (data not shown)"}, "collagen [5]": {"test_system": "collagen", "experiment": "Activity to stimulate collagen synthesis (data not shown)"}}}
{"molecule": "SEQ ID NO: 12: N-terminal deletion fragment of AIMP1, amino acids 6-46 (AVLKRLEQKGAEADQIIEYLKQQVSLLKEKAILQATLREEK; PEPTIDE (1)..(41) AIMP1-(6-46); listed as Homo sapiens)", "values": [{"measurement": "KGF synthesis (RT-PCR), deletion fragments, compared with C-terminal fragment SEQ ID NO: 15", "setting": "KGF [1]", "result": "more stimulated"}, {"measurement": "collagen synthesis (RT-PCR), deletion fragments, compared with C-terminal fragment SEQ ID NO: 15", "setting": "collagen [2]", "result": "more stimulated"}, {"measurement": "synthesis of collagen, protein levels (Western blot), compared with cells without treatment", "setting": "collagen [3]", "result": "more stimulated"}]}
{"molecule": "SEQ ID NO: 13: N-terminal deletion fragment of AIMP1, amino acids 1-46 (MANNDAVLKRLEQKGAEADQIIEYLKQQVSLLKEKAILQATLREEK; PEPTIDE (1)..(46) AIMP1-(1-46); listed as Homo sapiens)", "values": [{"measurement": "KGF synthesis (RT-PCR), deletion fragments, compared with C-terminal fragment SEQ ID NO: 15", "setting": "KGF [1]", "result": "more stimulated"}, {"measurement": "collagen synthesis (RT-PCR), deletion fragments, compared with C-terminal fragment SEQ ID NO: 15", "setting": "collagen [2]", "result": "more stimulated"}]}
{"molecule": "SEQ ID NO: 14: N-terminal deletion fragment of AIMP1, amino acids 1-53 (MANNDAVLKRLEQKGAEADQIIEYLKQQVSLLKEKAILQATLREEKKLRVENA; PEPTIDE (1)..(53) AIMP1-(1-53); listed as Homo sapiens)", "values": [{"measurement": "KGF synthesis (RT-PCR), deletion fragments, compared with C-terminal fragment SEQ ID NO: 15", "setting": "KGF [1]", "result": "more stimulated"}, {"measurement": "collagen synthesis (RT-PCR), deletion fragments, compared with C-terminal fragment SEQ ID NO: 15", "setting": "collagen [2]", "result": "more stimulated"}]}
{"molecule": "B1", "values": [{"measurement": "activity to stimulate KGF expression", "setting": "KGF [4]", "result": "have the activity to stimulate collagen synthesis and KGF expression"}, {"measurement": "activity to stimulate collagen synthesis", "setting": "collagen [5]", "result": "have the activity to stimulate collagen synthesis"}]}
{"molecule": "B2", "values": [{"measurement": "activity to stimulate KGF expression", "setting": "KGF [4]", "result": "have the activity to stimulate collagen synthesis and KGF expression"}, {"measurement": "activity to stimulate collagen synthesis", "setting": "collagen [5]", "result": "have the activity to stimulate collagen synthesis"}]}
{"molecule": "B3", "values": [{"measurement": "synthesis of KGF (RT-PCR), AIMP1 fragments", "setting": "KGF [1]", "result": "no significant effect"}, {"measurement": "synthesis of collagen (RT-PCR), AIMP1 fragments", "setting": "collagen [2]", "result": "no significant effect"}]}
{"molecule": "B4", "values": [{"measurement": "synthesis of KGF (RT-PCR), AIMP1 fragments", "setting": "KGF [1]", "result": "stimulated"}, {"measurement": "synthesis of collagen (RT-PCR), AIMP1 fragments", "setting": "collagen [2]", "result": "stimulated"}, {"measurement": "synthesis of collagen, protein levels (Western blot), compared with cells without treatment", "setting": "collagen [3]", "result": "more stimulated"}]}
